# Values quoted from earlier work in patent US10786531B2, “Mineral salt-sulfonic acid compositions and methods of use” (BMG PHARMA SPA, priority 2009, dated 2020).
# B1: lactoferrin: globular, cationic, non-heme iron-binding protein (protein, UniProt P02788 20-710, looked up)
# Lactotransferrin: GRRRSVQWCAVSQPEATKCFQWQRNMRKVRGPPVSCIKRDSPIQCIQAIAENRADAVTLDGGFIYEAGLAPYKLRPVAAEVYGTERQPRTHYYAVAVVKKGGSFQLNELQGLKSCHTGLRRTAGWNVPIGTLRPFLNWTGPPEPIEAAVARFFSASCVPGADKGQFPNLCRLCAGTGENKCAFSSQEPYFSYSGAFKCLRDGAGDVAFIRESTVFEDLSDEAERDEYELLCPDNTRKPVDKFKDCHLARVPSHAVVARSVNGKEDAIWNLLRQAQEKFGKDKSPKFQLFGSPSGQKDLLFKDSAIGFSRVPPRIDSGLYLGSGYFTAIQNLRKSEEEVAARRARVVWCAVGEQELRKCNQWSGLSEGSVTCSSASTTEDCIALVLKGEADAMSLDGGYVYTAGKCGLVPVLAENYKSQQSSDPDPNCVDRPVEGYLAVAVVRRSDTSLTWNSVKGKKSCHTAVDRTAGWNIPMGLLFNQTGSCKFDEYFSQSCAPGSDPRSNLCALCIGDEQGENKCVPNSNERYYGYTGAFRCLAENAGDVAFVKDVTVLQNTDGNNNEAWAKDLKLADFALLCLDGKRKPVTEARSCHLAMAPNHAVVSRMDKVERLKQVLLHQQAKFGRNGSDCPDKFCLFQSETKNLLFNDNTECLARLHGKTTYEKYLGPQYVAGITNLKKCSTSPLLEACEFLRK
# Conditions: animal studies
molecule,measurement,value
B1,dose well tolerated with minimum toxic effects,2000 mg/kg/day
